The target in this assay is human sortilin on the cell surface (recombinant huSortilin on HEK 293 cells; endogenous on U251MG cells) (human), Q99523. Nature of the assay: flow cytometry, hPGRN-biotin on hSortilin HEK cells clone A (note under the bar chart). The conditions noted are these: remark: other sources report otherwise. Background: In flow cytometry, cells or beads pass a laser one at a time.
Chain of human sortilin on the cell surface (recombinant huSortilin on HEK 293 cells; endogenous on U251MG cells) (human), Q99523 (Q99523 78-831): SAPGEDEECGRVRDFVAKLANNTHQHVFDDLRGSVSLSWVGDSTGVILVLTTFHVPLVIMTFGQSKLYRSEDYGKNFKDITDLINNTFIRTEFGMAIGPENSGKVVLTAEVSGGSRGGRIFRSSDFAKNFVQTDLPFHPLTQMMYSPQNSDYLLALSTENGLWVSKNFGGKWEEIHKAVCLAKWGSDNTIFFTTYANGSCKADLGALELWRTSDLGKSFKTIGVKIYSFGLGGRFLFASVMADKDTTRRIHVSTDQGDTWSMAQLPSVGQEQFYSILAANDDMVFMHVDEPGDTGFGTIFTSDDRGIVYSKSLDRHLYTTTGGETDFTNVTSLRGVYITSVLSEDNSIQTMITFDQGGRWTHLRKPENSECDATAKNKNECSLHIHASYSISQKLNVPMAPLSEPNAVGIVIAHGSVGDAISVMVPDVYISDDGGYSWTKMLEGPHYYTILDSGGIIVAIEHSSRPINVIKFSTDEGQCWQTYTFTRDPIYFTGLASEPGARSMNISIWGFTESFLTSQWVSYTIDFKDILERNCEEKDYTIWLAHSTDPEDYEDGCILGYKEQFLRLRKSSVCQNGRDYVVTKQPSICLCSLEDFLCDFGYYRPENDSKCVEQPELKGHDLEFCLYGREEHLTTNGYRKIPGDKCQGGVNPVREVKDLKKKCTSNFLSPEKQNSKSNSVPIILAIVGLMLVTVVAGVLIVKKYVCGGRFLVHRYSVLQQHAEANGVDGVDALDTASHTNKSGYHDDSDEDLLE

B1: human progranulin, biotinylated (huPGRN-Biotin), P28799 18-593 (ligand, UniProt P28799 18-593, looked up)
chain: TRCPDGQFCPVACCLDPGGASYSCCRPLLDKWPTTLSRHLGGPCQVDAHCSAGHSCIFTVSGTSSCCPFPEAVACGDGHHCCPRGFHCSADGRSCFQRSGNNSVGAIQCPDSQFECPDFSTCCVMVDGSWGCCPMPQASCCEDRVHCCPHGAFCDLVHTRCITPTGTHPLAKKLPAQRTNRAVALSSSVMCPDARSRCPDGSTCCELPSGKYGCCPMPNATCCSDHLHCCPQDTVCDLIQSKCLSKENATTDLLTKLPAHTVGDVKCDMEVSCPDGYTCCRLQSGAWGCCPFTQAVCCEDHIHCCPAGFTCDTQKGTCEQGPHQVPWMEKAPAHLSLPDPQALKRDVPCDNVSSCPSSDTCCQLTSGEWGCCPIPEAVCCSDHQHCCPQGYTCVAEGQCQRGSEIVAGLEKMPARRASLSHPRDIGCDQHTSCPVGQTCCPSLGGSWACCQLPHAVCCEDRQHCCPAGYTCNVKARSCEKEVVSAQPATFLARSPHVGVKDVECGEGHFCHDNQTCCRDNRQGWACCPYRQGVCCADRRHCCPAGFRCAARGTKCLRREAPRWDAPLRDPALRQLL
modifications: here or on the partner: biotinylated at a ratio of 5:1 using EZ-Link NHS-PEG4-Biotin
As for B1, the ED50 is 30 nM.

For the origin of these results see US20230235048A1.
